The record followed here is patent US20220204580A1 (AstraZeneca / MedImmune, published 2022).

Numbered stars: 1 amine (or outer) side, 2 acyl side, 3 side chain; on linkers, the order of the positions; unused ones are H or OH. Bridge positions count the residues as written; N and C are the ends. Square brackets hold non-standard residues; d marks the D form. Side chains are listed from the residue outwards. Ends that are not written are not given here. * marks the point of attachment. C18 diacid = O=C(O)CCCCCCCCCCCCCCCCC(=O)*; γGlu = O=C(O)[C@H](CCC(=O)[*:2])N[*:1]; Aib = CC(C)(N)C(=O)O

Assay [1] addresses T1, human calcitonin receptor (human, UniProt P30988 25-474).
T1 sequence (looked up): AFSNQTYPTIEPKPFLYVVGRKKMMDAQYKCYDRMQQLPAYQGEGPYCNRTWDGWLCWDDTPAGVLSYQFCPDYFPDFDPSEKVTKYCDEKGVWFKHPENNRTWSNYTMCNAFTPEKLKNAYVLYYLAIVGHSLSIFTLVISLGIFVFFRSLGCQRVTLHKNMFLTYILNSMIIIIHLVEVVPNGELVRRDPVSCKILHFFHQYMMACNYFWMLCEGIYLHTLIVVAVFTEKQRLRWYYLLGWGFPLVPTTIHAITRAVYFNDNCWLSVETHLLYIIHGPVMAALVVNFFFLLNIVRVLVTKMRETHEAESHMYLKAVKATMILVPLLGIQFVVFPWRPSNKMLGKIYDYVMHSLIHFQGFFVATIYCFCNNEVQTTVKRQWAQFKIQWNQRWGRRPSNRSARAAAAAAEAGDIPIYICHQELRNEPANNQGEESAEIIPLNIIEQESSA
Kind of assay: cell-based or functional assay.

The target in assay [2] is T2, human amylin receptor (calcitonin receptor co-expressed with receptor activity modifying protein, RAMP3) (human, UniProt P30988 25-474; O60896 24-148).
T2 sequence (looked up) 1: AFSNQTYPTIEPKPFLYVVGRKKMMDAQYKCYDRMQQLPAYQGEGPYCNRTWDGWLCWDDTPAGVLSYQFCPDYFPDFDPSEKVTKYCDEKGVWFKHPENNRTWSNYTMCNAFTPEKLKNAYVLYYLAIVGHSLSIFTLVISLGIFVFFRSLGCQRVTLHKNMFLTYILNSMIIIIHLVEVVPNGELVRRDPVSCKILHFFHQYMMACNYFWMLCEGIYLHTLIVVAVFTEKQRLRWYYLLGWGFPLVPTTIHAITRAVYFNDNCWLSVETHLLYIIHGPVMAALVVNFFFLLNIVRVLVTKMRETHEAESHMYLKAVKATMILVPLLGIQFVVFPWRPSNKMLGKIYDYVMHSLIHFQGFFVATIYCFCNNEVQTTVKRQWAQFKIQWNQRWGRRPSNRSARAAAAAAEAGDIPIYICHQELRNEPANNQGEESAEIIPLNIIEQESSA
T2 sequence (looked up) 2: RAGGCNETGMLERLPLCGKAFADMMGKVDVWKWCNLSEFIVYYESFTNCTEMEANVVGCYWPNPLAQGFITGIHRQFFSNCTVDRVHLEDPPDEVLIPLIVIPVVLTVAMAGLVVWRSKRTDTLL
Kind of assay: cell-based or functional assay.

B1: Peptide 137 (SEQ ID NO: 137) (peptide)
peptide: K([γGlu-C18 diacid])KCNTATCATQRLANFL[Aib]HSSRNFGPILPPTNVGSNTY-NH2
modifications: disulfide 3-8; N-terminus assumed
SMILES: CC[C@H](C)[C@H](NC(=O)[C@@H]1CCCN1C(=O)CNC(=O)[C@H](Cc1ccccc1)NC(=O)[C@H](CC(N)=O)NC(=O)[C@H](CCCNC(=N)N)NC(=O)[C@H](CO)NC(=O)[C@H](CO)NC(=O)[C@H](Cc1c[nH]cn1)NC(=O)C(C)(C)NC(=O)[C@H](CC(C)C)NC(=O)[C@H](Cc1ccccc1)NC(=O)[C@H](CC(N)=O)NC(=O)[C@H](C)NC(=O)[C@H](CC(C)C)NC(=O)[C@H](CCCNC(=N)N)NC(=O)[C@H](CCC(N)=O)NC(=O)[C@@H](NC(=O)[C@H](C)NC(=O)[C@@H]1CSSC[C@H](NC(=O)[C@H](CCCCN)NC(=O)[C@@H](N)CCCCNC(=O)CC[C@H](NC(=O)CCCCCCCCCCCCCCCCC(=O)O)C(=O)O)C(=O)N[C@@H](CC(N)=O)C(=O)N[C@@H]([C@@H](C)O)C(=O)N[C@@H](C)C(=O)N[C@@H]([C@@H](C)O)C(=O)N1)[C@@H](C)O)C(=O)N[C@@H](CC(C)C)C(=O)N1CCC[C@H]1C(=O)N1CCC[C@H]1C(=O)N[C@H](C(=O)N[C@@H](CC(N)=O)C(=O)N[C@H](C(=O)NCC(=O)N[C@@H](CO)C(=O)N[C@@H](CC(N)=O)C(=O)N[C@H](C(=O)N[C@@H](Cc1ccc(O)cc1)C(N)=O)[C@@H](C)O)C(C)C)[C@@H](C)O
With B1, the “EC50 (cAMP production)” value in assay [1] is 1500 pM. For the same molecule, in assay [2], the “EC50 (cAMP production)” value came out at 238 pM and the “Ratio (EC50 hCTR / EC50 hAMYR3)” value was found to be 6.3.

B2: Peptide 138 (SEQ ID NO: 138) (peptide)
peptide: K([γGlu-C18 diacid])KCNTATCATQRLANFL[Aib]HSSPNFGPILPPTEVGSNTY-NH2
modifications: disulfide 3-8; N-terminus assumed
SMILES: CC[C@H](C)[C@H](NC(=O)[C@@H]1CCCN1C(=O)CNC(=O)[C@H](Cc1ccccc1)NC(=O)[C@H](CC(N)=O)NC(=O)[C@@H]1CCCN1C(=O)[C@H](CO)NC(=O)[C@H](CO)NC(=O)[C@H](Cc1c[nH]cn1)NC(=O)C(C)(C)NC(=O)[C@H](CC(C)C)NC(=O)[C@H](Cc1ccccc1)NC(=O)[C@H](CC(N)=O)NC(=O)[C@H](C)NC(=O)[C@H](CC(C)C)NC(=O)[C@H](CCCNC(=N)N)NC(=O)[C@H](CCC(N)=O)NC(=O)[C@@H](NC(=O)[C@H](C)NC(=O)[C@@H]1CSSC[C@H](NC(=O)[C@H](CCCCN)NC(=O)[C@@H](N)CCCCNC(=O)CC[C@H](NC(=O)CCCCCCCCCCCCCCCCC(=O)O)C(=O)O)C(=O)N[C@@H](CC(N)=O)C(=O)N[C@@H]([C@@H](C)O)C(=O)N[C@@H](C)C(=O)N[C@@H]([C@@H](C)O)C(=O)N1)[C@@H](C)O)C(=O)N[C@@H](CC(C)C)C(=O)N1CCC[C@H]1C(=O)N1CCC[C@H]1C(=O)N[C@H](C(=O)N[C@@H](CCC(=O)O)C(=O)N[C@H](C(=O)NCC(=O)N[C@@H](CO)C(=O)N[C@@H](CC(N)=O)C(=O)N[C@H](C(=O)N[C@@H](Cc1ccc(O)cc1)C(N)=O)[C@@H](C)O)C(C)C)[C@@H](C)O
In the case of B2, in assay [1], the “EC50 (cAMP production)” value was found to be 2510 pM. In assay [2], the “EC50 (cAMP production)” value amounted to 612 pM and the “Ratio (EC50 hCTR / EC50 hAMYR3)” value came to 4.1.

B3: Peptide 136 (SEQ ID NO: 136) (peptide)
peptide: K([γGlu-C18 diacid])KCNTATCATQRLANFL[Aib]HSSNNFGPILPPTNVGSNTP-NH2
modifications: disulfide 3-8; N-terminus assumed
SMILES: CC[C@H](C)[C@H](NC(=O)[C@@H]1CCCN1C(=O)CNC(=O)[C@H](Cc1ccccc1)NC(=O)[C@H](CC(N)=O)NC(=O)[C@H](CC(N)=O)NC(=O)[C@H](CO)NC(=O)[C@H](CO)NC(=O)[C@H](Cc1c[nH]cn1)NC(=O)C(C)(C)NC(=O)[C@H](CC(C)C)NC(=O)[C@H](Cc1ccccc1)NC(=O)[C@H](CC(N)=O)NC(=O)[C@H](C)NC(=O)[C@H](CC(C)C)NC(=O)[C@H](CCCNC(=N)N)NC(=O)[C@H](CCC(N)=O)NC(=O)[C@@H](NC(=O)[C@H](C)NC(=O)[C@@H]1CSSC[C@H](NC(=O)[C@H](CCCCN)NC(=O)[C@@H](N)CCCCNC(=O)CC[C@H](NC(=O)CCCCCCCCCCCCCCCCC(=O)O)C(=O)O)C(=O)N[C@@H](CC(N)=O)C(=O)N[C@@H]([C@@H](C)O)C(=O)N[C@@H](C)C(=O)N[C@@H]([C@@H](C)O)C(=O)N1)[C@@H](C)O)C(=O)N[C@@H](CC(C)C)C(=O)N1CCC[C@H]1C(=O)N1CCC[C@H]1C(=O)N[C@H](C(=O)N[C@@H](CC(N)=O)C(=O)N[C@H](C(=O)NCC(=O)N[C@@H](CO)C(=O)N[C@@H](CC(N)=O)C(=O)N[C@H](C(=O)N1CCC[C@H]1C(N)=O)[C@@H](C)O)C(C)C)[C@@H](C)O
Take B3: in assay [1], the “EC50 (cAMP production)” value worked out at 101 pM. In assay [2], the “EC50 (cAMP production)” value came to 122 pM and the “Ratio (EC50 hCTR / EC50 hAMYR3)” value came out at 0.8.

B4: Peptide 135 (SEQ ID NO: 135) (peptide)
peptide: K([γGlu-C18 diacid])KCNTATCATQRLANFL[Aib]HSSNHFGPILPPTNVGSNTY-NH2
modifications: disulfide 3-8; N-terminus assumed
SMILES: CC[C@H](C)[C@H](NC(=O)[C@@H]1CCCN1C(=O)CNC(=O)[C@H](Cc1ccccc1)NC(=O)[C@H](Cc1c[nH]cn1)NC(=O)[C@H](CC(N)=O)NC(=O)[C@H](CO)NC(=O)[C@H](CO)NC(=O)[C@H](Cc1c[nH]cn1)NC(=O)C(C)(C)NC(=O)[C@H](CC(C)C)NC(=O)[C@H](Cc1ccccc1)NC(=O)[C@H](CC(N)=O)NC(=O)[C@H](C)NC(=O)[C@H](CC(C)C)NC(=O)[C@H](CCCNC(=N)N)NC(=O)[C@H](CCC(N)=O)NC(=O)[C@@H](NC(=O)[C@H](C)NC(=O)[C@@H]1CSSC[C@H](NC(=O)[C@H](CCCCN)NC(=O)[C@@H](N)CCCCNC(=O)CC[C@H](NC(=O)CCCCCCCCCCCCCCCCC(=O)O)C(=O)O)C(=O)N[C@@H](CC(N)=O)C(=O)N[C@@H]([C@@H](C)O)C(=O)N[C@@H](C)C(=O)N[C@@H]([C@@H](C)O)C(=O)N1)[C@@H](C)O)C(=O)N[C@@H](CC(C)C)C(=O)N1CCC[C@H]1C(=O)N1CCC[C@H]1C(=O)N[C@H](C(=O)N[C@@H](CC(N)=O)C(=O)N[C@H](C(=O)NCC(=O)N[C@@H](CO)C(=O)N[C@@H](CC(N)=O)C(=O)N[C@H](C(=O)N[C@@H](Cc1ccc(O)cc1)C(N)=O)[C@@H](C)O)C(C)C)[C@@H](C)O
Regarding B4, the “EC50 (cAMP production)” value is 345 pM in assay [1] and 296 pM in assay [2]. In assay [2], the “Ratio (EC50 hCTR / EC50 hAMYR3)” value was determined as 1.2.

B5: Peptide 141 (SEQ ID NO: 141) (peptide)
peptide: K([γGlu-C18 diacid])KCNTATCATQRLANFL[Aib]HSSNNFGPILPPTNVGSRTY-NH2
modifications: disulfide 3-8; N-terminus assumed
SMILES: CC[C@H](C)[C@H](NC(=O)[C@@H]1CCCN1C(=O)CNC(=O)[C@H](Cc1ccccc1)NC(=O)[C@H](CC(N)=O)NC(=O)[C@H](CC(N)=O)NC(=O)[C@H](CO)NC(=O)[C@H](CO)NC(=O)[C@H](Cc1c[nH]cn1)NC(=O)C(C)(C)NC(=O)[C@H](CC(C)C)NC(=O)[C@H](Cc1ccccc1)NC(=O)[C@H](CC(N)=O)NC(=O)[C@H](C)NC(=O)[C@H](CC(C)C)NC(=O)[C@H](CCCNC(=N)N)NC(=O)[C@H](CCC(N)=O)NC(=O)[C@@H](NC(=O)[C@H](C)NC(=O)[C@@H]1CSSC[C@H](NC(=O)[C@H](CCCCN)NC(=O)[C@@H](N)CCCCNC(=O)CC[C@H](NC(=O)CCCCCCCCCCCCCCCCC(=O)O)C(=O)O)C(=O)N[C@@H](CC(N)=O)C(=O)N[C@@H]([C@@H](C)O)C(=O)N[C@@H](C)C(=O)N[C@@H]([C@@H](C)O)C(=O)N1)[C@@H](C)O)C(=O)N[C@@H](CC(C)C)C(=O)N1CCC[C@H]1C(=O)N1CCC[C@H]1C(=O)N[C@H](C(=O)N[C@@H](CC(N)=O)C(=O)N[C@H](C(=O)NCC(=O)N[C@@H](CO)C(=O)N[C@@H](CCCNC(=N)N)C(=O)N[C@H](C(=O)N[C@@H](Cc1ccc(O)cc1)C(N)=O)[C@@H](C)O)C(C)C)[C@@H](C)O
In the case of B5, the “EC50 (cAMP production)” value in assay [1] amounted to 3950 pM. For the same molecule, in assay [2], the “EC50 (cAMP production)” value is 414 pM and the “Ratio (EC50 hCTR / EC50 hAMYR3)” value came out at 9.5.

B6: Peptide 139 (SEQ ID NO: 139) (peptide)
peptide: K([γGlu-C18 diacid])KCNTATCATQRLANFL[Aib]HSSPNFGPILPPTNVGSETY-NH2
modifications: disulfide 3-8; N-terminus assumed
SMILES: CC[C@H](C)[C@H](NC(=O)[C@@H]1CCCN1C(=O)CNC(=O)[C@H](Cc1ccccc1)NC(=O)[C@H](CC(N)=O)NC(=O)[C@@H]1CCCN1C(=O)[C@H](CO)NC(=O)[C@H](CO)NC(=O)[C@H](Cc1c[nH]cn1)NC(=O)C(C)(C)NC(=O)[C@H](CC(C)C)NC(=O)[C@H](Cc1ccccc1)NC(=O)[C@H](CC(N)=O)NC(=O)[C@H](C)NC(=O)[C@H](CC(C)C)NC(=O)[C@H](CCCNC(=N)N)NC(=O)[C@H](CCC(N)=O)NC(=O)[C@@H](NC(=O)[C@H](C)NC(=O)[C@@H]1CSSC[C@H](NC(=O)[C@H](CCCCN)NC(=O)[C@@H](N)CCCCNC(=O)CC[C@H](NC(=O)CCCCCCCCCCCCCCCCC(=O)O)C(=O)O)C(=O)N[C@@H](CC(N)=O)C(=O)N[C@@H]([C@@H](C)O)C(=O)N[C@@H](C)C(=O)N[C@@H]([C@@H](C)O)C(=O)N1)[C@@H](C)O)C(=O)N[C@@H](CC(C)C)C(=O)N1CCC[C@H]1C(=O)N1CCC[C@H]1C(=O)N[C@H](C(=O)N[C@@H](CC(N)=O)C(=O)N[C@H](C(=O)NCC(=O)N[C@@H](CO)C(=O)N[C@@H](CCC(=O)O)C(=O)N[C@H](C(=O)N[C@@H](Cc1ccc(O)cc1)C(N)=O)[C@@H](C)O)C(C)C)[C@@H](C)O
B6: the “EC50 (cAMP production)” value in assay [1] worked out at 1040 pM. Also, in assay [2], the “EC50 (cAMP production)” value came out at 285 pM and the “Ratio (EC50 hCTR / EC50 hAMYR3)” value stood at 3.7.
